Reference: patent US20060257938A1, “Method of screening for drugs that block ligand binding to a lipid binding protein” (priority 2005, published 2006)
Values joined by “and” are separate entries in the source; they are usually repeats but may differ in a detail not shown here. Equal values may be shown once.

Key:
Format in all cases: binding
Details in all cases: response relative to ADIFAB2
[1] = Probe fluorescence ratio response to palmitic acid relative to ADIFAB2
Outline: (§1)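 Each fatty acid's response was expressed relative to ADIFAB2, the rI-FABP-L72A probe, as ΔR/ΔRreference. ΔR is the change in the background-corrected two-wavelength intensity ratio R=Fλ1/Fλ2 from its analyte-free baseline R0. Emission was read near about 420-480 nm for unbound and about 495-580 nm for FFA-bound probe.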

[2] = Probe fluorescence ratio response to oleic acid relative to ADIFAB2
Outline: as §1

[3] = Probe fluorescence ratio response to linolenic acid relative to ADIFAB2
Outline: as §1

[4] = Probe fluorescence ratio response to arachidonic acid relative to ADIFAB2
Outline: as §1

[5] = Probe fluorescence ratio response to linoleic acid relative to ADIFAB2
Outline: as §1

Molecule | DR/DR PA [1] | DR/DR OA [2] | DR/DR LNA [3] | DR/DR AA ([4]; Arachidonic acid) | DR/DR LA [5] | DR/DR AA ([4]; arachidonic acid)
47C3, L72A (protein, listed as Rattus norvegicus, PEPTIDE (1)...(131) wild-type rat intestinal fatty acid binding protein) AFDGTWKVDRNENYEKFMEKMGINVVKRKLGAHDNLKLTITQEGNKCTVKESSNFRNIDVVFELGVDFAYSAADGTELTGTWTMEGNKLVGKFKRVDNGKELIAVREISGNELIQTYTYEGVEAKRIFKKE | 0.23 | 0.35 | 0.35 | 0.32 | 0.37 | 
47S1, L72A (protein, listed as Rattus norvegicus, PEPTIDE (1)...(131) wild-type rat intestinal fatty acid binding protein) AFDGTWKVDRNENYEKFMEKMGINVVKRKLGAHDNLKLTITQEGNKSTVKESSNFRNIDVVFELGVDFAYSAADGTELTGTWTMEGNKLVGKFKRVDNGKELIAVREISGNELIQTYTYEGVEAKRIFKKE | 0.34 | 0.64 | 0.69 | 0.61 | 0.66 | 
47I2, L72A (protein, listed as Rattus norvegicus, PEPTIDE (1)...(131) wild-type rat intestinal fatty acid binding protein) AFDGTWKVDRNENYEKFMEKMGINVVKRKLGAHDNLKLTITQEGNKITVKESSNFRNIDVVFELGVDFAYSAADGTELTGTWTMEGNKLVGKFKRVDNGKELIAVREISGNELIQTYTYEGVEAKRIFKKE | 0.92 | 1.15 | 1.19 | 1.19 | 1.22 | 
47M, 72A (protein, listed as Rattus norvegicus, PEPTIDE (1)...(131) wild-type rat intestinal fatty acid binding protein) AFDGTWKVDRNENYEKFMEKMGINVVKRKLGAHDNLKLTITQEGNKMTVKESSNFRNIDVVFELGVDFAYSAADGTELTGTWTMEGNKLVGKFKRVDNGKELIAVREISGNELIQTYTYEGVEAKRIFKKE | 0.97 and 0.966 | 1.17 and 1.168 | 1.13 and 1.135 | 1.14 | 1.18 and 1.183 | 1.138
47R3, L72A (protein, listed as Rattus norvegicus, PEPTIDE (1)...(131) wild-type rat intestinal fatty acid binding protein) AFDGTWKVDRNENYEKFMEKMGINVVKRKLGAHDNLKLTITQEGNKRTVKESSNFRNIDVVFELGVDFAYSAADGTELTGTWTMEGNKLVGKFKRVDNGKELIAVREISGNELIQTYTYEGVEAKRIFKKE | 0.30 | 0.62 | 0.61 | 0.56 | 0.64 | 
102R, 72A (protein, listed as Rattus norvegicus, PEPTIDE (1)...(131) wild-type rat intestinal fatty acid binding protein) AFDGTWKVDRNENYEKFMEKMGINVVKRKLGAHDNLKLTITQEGNKFTVKESSNFRNIDVVFELGVDFAYSAADGTELTGTWTMEGNKLVGKFKRVDNGKERIAVREISGNELIQTYTYEGVEAKRIFKKE | 0.25 | 0.56 | 0.57 |  | 0.60 | 0.51
49A1, 72A (protein, listed as Rattus norvegicus, PEPTIDE (1)...(131) wild-type rat intestinal fatty acid binding protein) AFDGTWKVDRNENYEKFMEKMGINVVKRKLGAHDNLKLTITQEGNKFTAKESSNFRNIDVVFELGVDFAYSAADGTELTGTWTMEGNKLVGKFKRVDNGKELIAVREISGNELIQTYTYEGVEAKRIFKKE | 0.79 | 1.60 | 1.68 | 1.72 | 1.72 | 
47V3, L72A (protein, listed as Rattus norvegicus, PEPTIDE (1)...(131) wild-type rat intestinal fatty acid binding protein) AFDGTWKVDRNENYEKFMEKMGINVVKRKLGAHDNLKLTITQEGNKVTVKESSNFRNIDVVFELGVDFAYSAADGTELTGTWTMEGNKLVGKFKRVDNGKELIAVREISGNELIQTYTYEGVEAKRIFKKE | 0.78 | 1.01 | 1.01 | 1.00 | 1.04 | 
47Y2, L72A (protein, listed as Rattus norvegicus, PEPTIDE (1)...(131) wild-type rat intestinal fatty acid binding protein) AFDGTWKVDRNENYEKFMEKMGINVVKRKLGAHDNLKLTITQEGNKYTVKESSNFRNIDVVFELGVDFAYSAADGTELTGTWTMEGNKLVGKFKRVDNGKELIAVREISGNELIQTYTYEGVEAKRIFKKE | 1.17 | 1.42 | 1.40 | 1.37 | 1.40 | 
102S, 72A (protein, listed as Rattus norvegicus, PEPTIDE (1)...(131) wild-type rat intestinal fatty acid binding protein) AFDGTWKVDRNENYEKFMEKMGINVVKRKLGAHDNLKLTITQEGNKFTVKESSNFRNIDVVFELGVDFAYSAADGTELTGTWTMEGNKLVGKFKRVDNGKESIAVREISGNELIQTYTYEGVEAKRIFKKE | 0.18 | 0.43 | 0.43 |  | 0.45 | 0.39
47P1, L72A (protein, listed as Rattus norvegicus, PEPTIDE (1)...(131) wild-type rat intestinal fatty acid binding protein) AFDGTWKVDRNENYEKFMEKMGINVVKRKLGAHDNLKLTITQEGNKPTVKESSNFRNIDVVFELGVDFAYSAADGTELTGTWTMEGNKLVGKFKRVDNGKELIAVREISGNELIQTYTYEGVEAKRIFKKE | 0.26 | 0.57 | 0.61 | 0.54 | 0.59 | 
47H1, L72A (protein, listed as Rattus norvegicus, PEPTIDE (1)...(131) wild-type rat intestinal fatty acid binding protein) AFDGTWKVDRNENYEKFMEKMGINVVKRKLGAHDNLKLTITQEGNKHTVKESSNFRNIDVVFELGVDFAYSAADGTELTGTWTMEGNKLVGKFKRVDNGKELIAVREISGNELIQTYTYEGVEAKRIFKKE | 0.43 | 0.67 | 0.70 | 0.63 | 0.74 | 
47L2, L72A (protein, listed as Rattus norvegicus, PEPTIDE (1)...(131) wild-type rat intestinal fatty acid binding protein) AFDGTWKVDRNENYEKFMEKMGINVVKRKLGAHDNLKLTITQEGNKLTVKESSNFRNIDVVFELGVDFAYSAADGTELTGTWTMEGNKLVGKFKRVDNGKELIAVREISGNELIQTYTYEGVEAKRIFKKE | 0.90 | 1.20 | 1.20 | 1.15 | 1.21 | 
47T1, L72A (protein, listed as Rattus norvegicus, PEPTIDE (1)...(131) wild-type rat intestinal fatty acid binding protein) AFDGTWKVDRNENYEKFMEKMGINVVKRKLGAHDNLKLTITQEGNKTTVKESSNFRNIDVVFELGVDFAYSAADGTELTGTWTMEGNKLVGKFKRVDNGKELIAVREISGNELIQTYTYEGVEAKRIFKKE | 0.46 | 0.74 | 0.74 | 0.68 | 0.77 | 
47E3, L72A (protein, listed as Rattus norvegicus, PEPTIDE (1)...(131) wild-type rat intestinal fatty acid binding protein) AFDGTWKVDRNENYEKFMEKMGINVVKRKLGAHDNLKLTITQEGNKETVKESSNFRNIDVVFELGVDFAYSAADGTELTGTWTMEGNKLVGKFKRVDNGKELIAVREISGNELIQTYTYEGVEAKRIFKKE | 1.06 | 1.25 | 1.26 | 1.25 | 1.23 | 
